This is an account of results in article PMC4759655 (Immunity, 2016).

The series deals with the molecule itself. The series can be described thus: cross-linking.

B1: CD45 protein tyrosine phosphatase (receptor, UniProt P06800 26-1293, looked up)
chain: QTPTPSDELSTTENALLLPQSDPLPARTTESTPPSISERGNGSSETTYHPGVLSTLLPHLSPQPDSQTPSAGGADTQTFSSQADNPTLTPAPGGGTDPPGVPGERTVPGTIPADTAFPVDTPSLARNSSAASPTHTSNVSTTDISSGASLTTLTPSTLGLASTDPPSTTIATTTKQTCAAMFGNITVNYTYESSNQTFKADLKDVQNAKCGNEDCENVLNNLEECSQIKNISVSNDSCAPATTIDLYVPPGTDKFSLHDCTPKEKANTSICLEWKTKNLDFRKCNSDNISYVLHCEPENNTKCIRRNTFIPERCQLDNLRAQTNYTCVAEILYRGVKLVKNVINVQTDLGIPETPKPSCGDPAARKTLVSWPEPVSKPESASKPHGYVLCYKNNSEKCKSLPNNVTSFEVESLKPYKYYEVSLLAYVNGKIQRNGTAEKCNFHTKADRPDKVNGMKTSRPTDNSINVTCGPPYETNGPKTFYILVVRSGGSFVTKYNKTNCQFYVDNLYYSTDYEFLVSFHNGVYEGDSVIRNESTNFNAKALIIFLVFLIIVTSIALLVVLYKIYDLRKKRSSNLDEQQELVERDDEKQLMDVEPIHSDILLETYKRKIADEGRLFLAEFQSIPRVFSKFPIKDARKPHNQNKNRYVDILPYDYNRVELSEINGDAGSTYINASYIDGFKEPRKYIAAQGPRDETVDDFWRMIWEQKATVIVMVTRCEEGNRNKCAEYWPSMEEGTRAFKDIVVTINDHKRCPDYIIQKLNVAHKKEKATGREVTHIQFTSWPDHGVPEDPHLLLKLRRRVNAFSNFFSGPIVVHCSAGVGRTGTYIGIDAMLEGLEAEGKVDVYGYVVKLRRQRCLMVQVEAQYILIHQALVEYNQFGETEVNLSELHSCLHNMKKRDPPSDPSPLEAEYQRLPSYRSWRTQHIGNQEENKKKNRNSNVVPYDFNRVPLKHELEMSKESEPESDESSDDDSDSEETSKYINASFVMSYWKPEMMIAAQGPLKETIGDFWQMIFQRKVKVIVMLTELVNGDQEVCAQYWGEGKQTYGDMEVEMKDTNRASAYTLRTFELRHSKRKEPRTVYQYQCTTWKGEELPAEPKDLVSMIQDLKQKLPKASPEGMKYHKHASILVHCRDGSQQTGLFCALFNLLESAETEDVVDVFQVVKSLRKARPGVVCSYEQYQFLYDIIASIYPAQNGQVKKTNSQDKIEFHNEVDGGKQDANCVRPDGPLNKAQEDSRGVGTPEPTNSAEEPEHAANGSASPAPTQSS
The term stoichiometry N denotes a count of units in the complex or per binding partner. Consider B1, for which the “stoichiometry N” value was found to be 2.
